Test results: patent US20200338203A1 (Bicycle, published 2020)
Numbered stars: 1 amine (or outer) side, 2 acyl side, 3 side chain; on linkers, the order of the positions; unused ones are H or OH. Bridge positions count the residues as written; N and C are the ends. Square brackets hold non-standard residues; d marks the D form. Ends that are not written are not given here. Dip = N[C@H](C(=O)O)C(c1ccccc1)c1ccccc1; 1Nal = N[C@@H](Cc1cccc2ccccc12)C(=O)O; TBMB = c1c(C[*:1])cc(C[*:3])cc1C[*:2]; Ala(cPr) = N[C@@H](CC1CC1)C(=O)O; hArg = N=C(N)NCCCC[C@H](N)C(=O)O; Gly(cPr) = N[C@H](C(=O)O)C1CC1; Cba = N[C@@H](CC1CCC1)C(=O)O; Tle = CC(C)(C)[C@H](N)C(=O)O; Aib = CC(C)(N)C(=O)O; Sar = CNCC(=O)O

The binders below were run against T1, Human EphA2 (Ecto) (Human, UniProt P29317 24-537) (assay: FP competition; competitor Compound 18).
T1 construct: extracellular domain
Experimental: Peptides without a fluorescent tag were tested in competition with a peptide with a fluorescent tag and a known Kd (Table 2). Peptides were diluted to an appropriate concentration in assay buffer as described in the direct binding assay with a maximum of 5% DMSO, then serially diluted 1 in 2. Five μL of diluted peptide was added to the plate followed by 10 μL of human or mouse EphA2 (Table 1) at a fixed concentration which was dependent on the fluorescent peptide used (Table 2), then 10 μL fluorescent peptide added. Measurements were conducted as for the direct binding assay, however the gain was determined prior to the first measurement.

T1 sequence (P29317 24-537): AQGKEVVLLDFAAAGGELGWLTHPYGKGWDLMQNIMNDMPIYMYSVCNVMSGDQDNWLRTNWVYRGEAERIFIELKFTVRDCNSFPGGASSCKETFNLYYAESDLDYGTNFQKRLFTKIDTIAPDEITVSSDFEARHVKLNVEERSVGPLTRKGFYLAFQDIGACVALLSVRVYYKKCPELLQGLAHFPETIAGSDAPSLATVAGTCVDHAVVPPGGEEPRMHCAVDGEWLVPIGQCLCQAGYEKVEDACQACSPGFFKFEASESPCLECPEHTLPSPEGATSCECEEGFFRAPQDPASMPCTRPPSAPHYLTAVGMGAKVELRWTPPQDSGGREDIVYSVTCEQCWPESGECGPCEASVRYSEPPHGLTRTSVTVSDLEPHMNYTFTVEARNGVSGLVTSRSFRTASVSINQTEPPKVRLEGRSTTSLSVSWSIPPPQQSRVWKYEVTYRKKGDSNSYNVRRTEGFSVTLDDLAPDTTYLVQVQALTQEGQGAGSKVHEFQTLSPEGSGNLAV

Binder | Ki [nM]
Ac-[Sar][Sar]A[dD][Ala(cPr)]TCPWGPFWCPVNRPGC (linker 7-14-21 via TBMB) [Compound 161] | 4.44
Ac-[Sar][Sar]A[dD]VTCPWGPFWCPVNR[Aib][dD]C (linker 7-14-21 via TBMB) [Compound 177] | 4.43
AHDVPCP[1Nal]G[Aib]FWCP[Tle]N[hArg]PGC (linker 6-13-20 via TBMB) [Compound 191] | 3.1
ADVHCPWAPFWCPVNRPGCA (linker 5-12-19 via TBMB) [Compound 151] | 394
Ac-[Sar][Sar]A[dD]VTCPWG[Aib]F[1Nal]CPVNR[Aib]GC (linker 7-14-21 via TBMB) [Compound 179] | 2.94
[Sar][Sar]ACP[1Nal]GPFWCP[Tle]N[hArg][Aib]GC (linker 4-11-18 via TBMB) [Compound 138] | 5.1
ADVHCP[Dip]GPFWCPVNRPGCA (linker 5-12-19 via TBMB) [Compound 149] | 52.8
[Sar][Sar]ACPWGPFWCPVNRP[dA]C (linker 4-11-18 via TBMB) [Compound 112] | 89
Ac-[Sar][Sar]A[dD]VTCP[1Nal]G[Aib]FWCPVNR[Aib]GC (linker 7-14-21 via TBMB) [Compound 178] | 2.4
ADVHCPWGPFWCPVN[dA]PGCA (linker 5-12-19 via TBMB) [Compound 156] | 14.9
Ac-[Sar][Sar]A[dD]VTCPWGPFWCPVN[hArg]P[dD]C (linker 7-14-21 via TBMB) [Compound 176] | 4.89
Ac-[Sar][Sar]A[dD]VTCPWGPNWCPVNRPGC (linker 7-14-21 via TBMB) [Compound 172] | 3.96
Ac-[Sar][Sar]A[dD]VTCPWGPFWCPLNRPGC (linker 7-14-21 via TBMB) [Compound 174] | 9.1
Ac-[Sar][Sar]A[dD]VTCPWGPAWCPVNRPGC (linker 7-14-21 via TBMB) [Compound 173] | 6.69
Ac-[Sar][Sar]A[dD]VTCPWG[Aib]FWCP[Tle]NR[Aib]GC (linker 7-14-21 via TBMB) [Compound 180] | 3.83
Ac-[Sar][Sar]A[dD][Cba]TCPWGPFWCPVNRPGC (linker 7-14-21 via TBMB) [Compound 160] | 2.6
Ac-[Sar][Sar]ADVHCPWGPFWCPVNRPGC (linker 7-14-21 via TBMB) [Compound 148] | 1.2
Ac-[Sar][Sar]AD[Tle]TCPWGPFWCPVNRPGC (linker 7-14-21 via TBMB) [Compound 164] | 2.25
Ac-[Sar][Sar]A[dD][Gly(cPr)]TCPWGPFWCPVNRPGC (linker 7-14-21 via TBMB) [Compound 162] | 2.55
Ac-[Sar][Sar]A[dD][dD]TCPWGPFWCPVNRPGC (linker 7-14-21 via TBMB) [Compound 159] | 2.85
Ac-[Sar][Sar]A[dD]VTCPWGP[hArg]WCPVNRPGC (linker 7-14-21 via TBMB) [Compound 171] | 4.88

Continued by falling Ki, values first:

Ki [nM] | Binder
2.17 | [dD]VTCPWGPFWCPVNRPGC (linker 4-11-18 via TBMB) [Compound 185]
2 | ADVHCPWGPFWCPV[dA]RPGCA (linker 5-12-19 via TBMB) [Compound 155]
1.8 | ADVHCPWGAFWCPVNRPGCA (linker 5-12-19 via TBMB) [Compound 152]
1.78 | Ac-[Sar][Sar]A[dD]VTCPWGPFWCPVNRP[dD]C (linker 7-14-21 via TBMB) [Compound 175]
1.75 | AHDVPCP[1Nal]G[Aib]FWCP[Tle]NR[Aib]GC (linker 6-13-20 via TBMB) [Compound 192]
1.45 | AHDVPCP[1Nal]GPFWCPVNRPGC (linker 6-13-20 via TBMB) [Compound 188]
1.37 | Ac-[Sar][Sar]A[dD]VTCP[1Nal]G[Aib]F[1Nal]CPVNR[Aib]GC (linker 7-14-21 via TBMB) [Compound 181]
1.3 | AHDVPCPWGPF[1Nal]CPVNRPGC (linker 6-13-20 via TBMB) [Compound 189]
0.91 | Ac-[Sar][Sar]ADVTCPWGPFWCPVNRPGC (linker 7-14-21 via TBMB) [Compound 157]
0.7 | AHDVPCP[1Nal]GPFWCP[Tle]NRPGC (linker 6-13-20 via TBMB) [Compound 190]
0.6 | Ac-[Sar][Sar]A[dD]VTCP[1Nal]GPFWCPVNRPGC (linker 7-14-21 via TBMB) [Compound 170]
0.59 | Ac-[Sar][Sar]AHDVPCPWGPFWCPVNRPGC (linker 8-15-22 via TBMB) [Compound 193]
0.51 | ADVHCPWG[Aib]FWCPVNRPGCA (linker 5-12-19 via TBMB) [Compound 153]
0.32 | AHDVPCP[1Nal]GPFWCPVNRPGCA (linker 6-13-20 via TBMB) [Compound 187]
0.29 | [Sar][Sar]ACP[1Nal]GPFWCP[Tle]N[hArg]PGC (linker 4-11-18 via TBMB) [Compound 130]
0.12 | ADVHCP[1Nal]GPFWCPVNRPGCA (linker 5-12-19 via TBMB) [Compound 150]
